Holding throughout (experiment): two-hybrid
Assay [1] addresses α-catenin COOH-terminal half (pBTM116-HA-α-catenin-C) (mouse) (UniProt P26231).
For assay [2], the target named is nectin-2α cytoplasmic region (pBTM116-HA-nectin-2α-CP) (mouse).
Assay [3] deals with α-catenin, full-length (pBTM116-HA-α-catenin) (mouse) (UniProt P26231).

Sequence of nectin-2α cytoplasmic region (pBTM116-HA-nectin-2α-CP) (mouse) (P32507 387-467): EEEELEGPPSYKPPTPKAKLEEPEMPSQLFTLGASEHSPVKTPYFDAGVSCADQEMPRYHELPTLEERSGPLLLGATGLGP

Turning to “l-afadin (pGAD424-HA-l-afadin), full-length, HA-tagged and fused with the GAL4 activation domain (from UniProt O35889-1 1-1829) (natural protein)”, the results for the β-galactosidase activity (units of β-galactosidase activity) in assay [1], in assay [2] and in assay [3] were 30, 41 and under 1, respectively.

These data come from article PMC2175253.
